Experimental data as given in patent publication US20230250156A1 (QUADRUCEPT BIO, published 2023).
Like-named read-outs stand apart in the source and are kept apart here.

B1: Q185B (tandem GB VHH-hinge-TD) (VHH)
chain: QVQLQESGGGLVQAGGSLRLSCAASGRTFSEYAMGWFRQAPGKEREFVATISWSGGSTYYTDSVKGRFTISRDNAKNTVYLQMNSLKPDDTAVYYCAAAGLGTVVSEWDYDYDYWGQGTQVTVSSGGSGGSQVQLQESGGGLVQAGGSLRLSCAASGRTFSEYAMGWFRQAPGKEREFVATISWSGGSTYYTDSVKGRFTISRDNAKNTVYLQMNSLKPDDTAVYYCAAAGLGTVVSEWDYDYDYWGQGTQVTVSSGGGGSGGGGSEPKSCDKTHTCPPCPAPELLGGKKKPLDGEYFTLQIRGRERFEMFRELNEALELKDAQAGKEPG
B2: QB-FE mIg-TD Quad (VHH)
VHH: QVQLVESGGGSVQAGGSLRLSCAASGTIAHIKYLGWFRQAPGKEREGVAALMTKWGQTYYADSVKGRFTVSLDNAKNTVYLQMNSLKPEDTALYYCAAASYGANFPLKASDYSYWGQGTQVTVSS
notes: as m58
B3: QB-FE VHH (monovalent) (VHH)
VHH: QVQLVESGGGSVQAGGSLRLSCAASGTIAHIKYLGWFRQAPGKEREGVAALMTKWGQTYYADSVKGRFTVSLDNAKNTVYLQMNSLKPEDTALYYCAAASYGANFPLKASDYSYWGQGTQVTVS
B4: Q177 (VHH QB-GB-TD) (VHH)
VHH: QVQLQESGGGLVQAGGSLRLSCAASGRTFSEYAMGWFRQAPGKEREFVATISWSGGSTYYTDSVKGRFTISRDNAKNTVYLQMNSLKPDDTAVYYCAAAGLGTVVSEWDYDYDYWGQGTQVTVSS
B5: Q179 (VHH QB-GB Ig-TD) (VHH)
VHH: B4 VHH
B6: Q185 (VHH QB-GB dimeric TD) (VHH)
VHH: B4 VHH
B7: Q178 (VHH QB-GB IgG, non-Quad format) (VHH)
VHH: B4 VHH
B8: Q180/Q182 (VHH QB-GB Fab-like Ig, non-Quad format) (VHH)
heavy: not shown
light: QVQLQESGGGLVQAGGSLRLSCAASGRTFSEYAMGWFRQAPGKEREFVATISWSGGSTYYTDSVKGRFTISRDNAKNTVYLQMNSLKPDDTAVYYCAAAGLGTVVSEWDYDYDYWGQGTQVTVSSGGGGSGGGGSKRTVAAPSVFIFPPSDEQLKSGTASVVCLLNNFYPREAKVQWKVDNALQSGNSQESVTEQDSKDSTYSLSSTLTLSKADYEKHKVYACEVTHQGLSSPVTKSFNRGEC
B9: Q181/Q182 (VHH QB-GB Fab-like Ig-TD) (VHH)
heavy: not shown
light: B8 light
B10: Q184/Q182 (VHH QB-GB Fab-like mIg-TD) (VHH)
heavy: QVQLQESGGGLVQAGGSLRLSCAASGRTFSEYAMGWFRQAPGKEREFVATISWSGGSTYYTDSVKGRFTISRDNAKNTVYLQMNSLKPDDTAVYYCAAAGLGTVVSEWDYDYDYWGQGTQVTVSSGGGGSGGGGSASTKGPSVFPLAPSSKSTSGGTAALGCLVKDYFPEPVTVSWNSGALTSGVHTFPAVLQSSGLYSLSSVVTVPSSSLGTQTYICNVNHKPSNTKVDKKVEPKSCDKTHTAPELLGGPSVFLFPPKPKDTLMISRTPEVTCVVVDVSHEDPEVKFNWYVDGVEVHNAKTKPREEQYNSTYRVVSVLTVLHQDWLNGKEYKCKVSNKALPAPIEKTISKAKGQPREPQVYTLPPSRDELTKNQVSLTCLVKGFYPSDIAVEWESNGQPENNYKTTPPVLDSDGSFFLYSKLTVDKSRWQQGNVFSCSVMHEALHNHYTQKSLSLSPGKKKKPLDGEYFTLQIRGRERFEMFRELNEALELKDAQAGKEPG
light: B8 light
B11: Q186/Q182 (VHH QB-GB Fab'-like TD, octavalent GB Quad) (VHH)
heavy: QVQLQESGGGLVQAGGSLRLSCAASGRTFSEYAMGWFRQAPGKEREFVATISWSGGSTYYTDSVKGRFTISRDNAKNTVYLQMNSLKPDDTAVYYCAAAGLGTVVSEWDYDYDYWGQGTQVTVSSGGGGSGGGGSASTKGPSVFPLAPSSKSTSGGTAALGCLVKDYFPEPVTVSWNSGALTSGVHTFPAVLQSSGLYSLSSVVTVPSSSLGTQTYICNVNHKPSNTKVDKKVEPKSCDKTHTCPPCPAPELLGGKKKPLDGEYFTLQIRGRERFEMFRELNEALELKDAQAGKEPG
light: B8 light
B12: Q183/Q182 (VHH QB-GB Fab-like TD) (VHH)
heavy: QVQLQESGGGLVQAGGSLRLSCAASGRTFSEYAMGWFRQAPGKEREFVATISWSGGSTYYTDSVKGRFTISRDNAKNTVYLQMNSLKPDDTAVYYCAAAGLGTVVSEWDYDYDYWGQGTQVTVSSGGGGSGGGGSASTKGPSVFPLAPSSKSTSGGTAALGCLVKDYFPEPVTVSWNSGALTSGVHTFPAVLQSSGLYSLSSVVTVPSSSLGTQTYICNVNHKPSNTKVDKKVEPKSCDKTHTKKKPLDGEYFTLQIRGRERFEMFRELNEALELKDAQAGKEPG
light: B8 light

Legend:
SARS-CoV-2 RBD protein [1] = target: T1, SARS-CoV-2 RBD protein (SARS-CoV-2, UniProt P0DTC2 319-541)
SARS-CoV-2 RBD protein [2] = target: T1, SARS-CoV-2 RBD protein; test: competitive ELISA as for the GB Quads, ACE2 Ig coated
SARS-CoV-2 RBD protein [3] = target: T1, SARS-CoV-2 RBD protein; test: indirect binding ELISA, CoV-2 RBD coated
SARS-CoV-2 RBD protein [4] = target: T1, SARS-CoV-2 RBD protein; remark: listed apart in the source
SARS-CoV-2 RBD protein [5] = target: T1, SARS-CoV-2 RBD protein; remark: listed apart in the source

Binder	IC50 (SARS-CoV-2 RBD protein [4]) [pM]	other results
B1		IC50 (SARS-CoV-2 RBD protein [1]): 0.03 pM
B2		IC50 (SARS-CoV-2 RBD protein [2]): 80 pM
B3		binding result (SARS-CoV-2 RBD protein [3]): no binding (tested: 100 nM)
B4	64.9	
B5	32.8	
B6	23.7	IC50 (SARS-CoV-2 RBD protein [5]): 14.7 pM
B7	185	
B8	77.8	
B9	15.4	
B10	34.2	
B11	14.8	IC50 (SARS-CoV-2 RBD protein [5]): 8.3 pM
B12	31.2	
